{"source": "paper PMC8509488", "key": {"[1]": {"target": "HspB1 from Chinese hamster, wild type (CgHspB1WT) (Chinese hamster)", "assay": "AUC; sedimentation velocity, Rayleigh interference optics, 40,000 rpm, buffer containing 20% ethylene glycol; 40 °C, 1.5 mg/mL"}, "[2]": {"target": "HspB1 from Chinese hamster, wild type (CgHspB1WT) (Chinese hamster)", "assay": "AUC; sedimentation velocity, Rayleigh interference optics, 40,000 rpm, buffer containing 20% ethylene glycol; 25 °C, 1.5 mg/mL"}, "[3]": {"target": "HspB1 from Chinese hamster, wild type (CgHspB1WT) (Chinese hamster)", "assay": "AUC; sedimentation velocity, Rayleigh interference optics, 40,000 rpm, buffer containing 20% ethylene glycol; 25 °C, 0.5 mg/mL"}, "[4]": {"target": "CgHspB1 N-terminal deletion mutant (CgHspB1DeltaN), N-terminal 30 amino acids deleted, from pET23b (Chinese hamster)", "assay": "SEC; HPLC-SEC, SB-804HQ gel-filtration column, sample heated at the specified temperature for 30 min, buffer B (50 mM Tris-HCl pH 7.5, 0.1 mM EDTA, 150 mM NaCl) with or without 20% ethylene glycol, 1.0 mL/min"}, "[5]": {"target": "CgHspB1C145S, CgHspB1 mutant with Cys145 replaced by Ser (Chinese hamster)", "assay": "AUC; sedimentation velocity, 40 °C, 0.5 mg/mL, with DTT"}, "[6]": {"target": "CgHspB1C145S, CgHspB1 mutant with Cys145 replaced by Ser (Chinese hamster)", "assay": "AUC; sedimentation velocity, 40 °C, 0.5 mg/mL, without DTT (series with and without DTT)"}, "[7]": {"target": "CgHspB1S15D, phosphorylation mimic mutant of CgHspB1 (Ser15 replaced with Asp) (Chinese hamster)", "assay": "AUC; sedimentation velocity, Rayleigh interference optics, 40,000 rpm, buffer containing 20% ethylene glycol; 4 °C, 0.1 mg/mL"}, "[8]": {"target": "CgHspB1S15D, phosphorylation mimic mutant of CgHspB1 (Ser15 replaced with Asp) (Chinese hamster)", "assay": "AUC; sedimentation velocity, Rayleigh interference optics, 40,000 rpm, buffer containing 20% ethylene glycol; 40 °C, 1.5 mg/mL"}, "[9]": {"target": "CgHspB1S15D, phosphorylation mimic mutant of CgHspB1 (Ser15 replaced with Asp) (Chinese hamster)", "assay": "AUC; sedimentation velocity, Rayleigh interference optics, 40,000 rpm, buffer containing 20% ethylene glycol; 4 °C, 1.5 mg/mL"}, "[10]": {"target": "CgHspB1S15D, phosphorylation mimic mutant of CgHspB1 (Ser15 replaced with Asp) (Chinese hamster)", "assay": "AUC; sedimentation velocity, Rayleigh interference optics, 40,000 rpm, buffer containing 20% ethylene glycol; 25 °C, 0.1 mg/mL"}, "[11]": {"target": "CgHspB1S15D, phosphorylation mimic mutant of CgHspB1 (Ser15 replaced with Asp) (Chinese hamster)", "assay": "AUC; sedimentation velocity, Rayleigh interference optics, 40,000 rpm, buffer containing 20% ethylene glycol; 40 °C, 0.5 mg/mL"}, "[12]": {"target": "CgHspB1S15D, phosphorylation mimic mutant of CgHspB1 (Ser15 replaced with Asp) (Chinese hamster)", "assay": "AUC; sedimentation velocity, Rayleigh interference optics, 40,000 rpm, buffer containing 20% ethylene glycol; 4 °C, 0.5 mg/mL"}, "[13]": {"target": "CgHspB1S15D, phosphorylation mimic mutant of CgHspB1 (Ser15 replaced with Asp) (Chinese hamster)", "assay": "AUC; sedimentation velocity, Rayleigh interference optics, 40,000 rpm, buffer containing 20% ethylene glycol; 25 °C, 1.5 mg/mL"}, "[14]": {"target": "CgHspB1S15D, phosphorylation mimic mutant of CgHspB1 (Ser15 replaced with Asp) (Chinese hamster)", "assay": "AUC; sedimentation velocity, Rayleigh interference optics, 40,000 rpm, buffer containing 20% ethylene glycol; 25 °C, 0.5 mg/mL"}, "[15]": {"target": "CgHspB1S15D, phosphorylation mimic mutant of CgHspB1 (Ser15 replaced with Asp) (Chinese hamster)", "assay": "AUC; sedimentation velocity, Rayleigh interference optics, 40,000 rpm, buffer containing 20% ethylene glycol; 40 °C, 0.1 mg/mL"}}, "data": [{"substance": "HspB1 from Chinese hamster, wild type (CgHspB1WT) (natural protein)", "values": [{"measurement": "stoichiometry N", "setting": "[1]; c(s20,w) peak a", "result": 20}, {"measurement": "stoichiometry N", "setting": "[1]; c(s20,w) peak b", "result": 27}, {"measurement": "stoichiometry N", "setting": "[1]; c(s20,w) peak c", "result": 38}, {"measurement": "stoichiometry N", "setting": "[2]; c(s20,w) peak a", "result": 20}, {"measurement": "stoichiometry N", "setting": "[2]; c(s20,w) peak b", "result": 30}, {"measurement": "stoichiometry N", "setting": "[3]; c(s20,w) peak b", "result": 6}, {"measurement": "stoichiometry N", "setting": "[3]; c(s20,w) peak c", "result": 18}]}, {"substance": "CgHspB1 N-terminal deletion mutant (CgHspB1DeltaN), N-terminal 30 amino acids deleted, from pET23b (domain or fragment)", "values": [{"measurement": "stoichiometry N", "setting": "[4]", "result": 6}]}, {"substance": "CgHspB1C145S, CgHspB1 mutant with Cys145 replaced by Ser (natural protein)", "values": [{"measurement": "stoichiometry N", "setting": "[5]; c(s20,w) peak a", "result": 21}, {"measurement": "stoichiometry N", "setting": "[5]; c(s20,w) peak b", "result": 25}, {"measurement": "stoichiometry N", "setting": "[5]; c(s20,w) peak c", "result": 32}, {"measurement": "stoichiometry N", "setting": "[6]; c(s20,w) peak a", "result": 21}, {"measurement": "stoichiometry N", "setting": "[6]; c(s20,w) peak b", "result": 25}, {"measurement": "stoichiometry N", "setting": "[6]; c(s20,w) peak c", "result": 33}]}, {"substance": "CgHspB1S15D, phosphorylation mimic mutant of CgHspB1 (Ser15 replaced with Asp) (natural protein)", "values": [{"measurement": "stoichiometry N", "setting": "[7]", "result": 19}, {"measurement": "stoichiometry N", "setting": "[8]", "result": 27}, {"measurement": "stoichiometry N", "setting": "[9]", "result": 18}, {"measurement": "stoichiometry N", "setting": "[10]", "result": 18}, {"measurement": "stoichiometry N", "setting": "[11]", "result": 26}, {"measurement": "stoichiometry N", "setting": "[12]", "result": 19}, {"measurement": "stoichiometry N", "setting": "[13]", "result": 19}, {"measurement": "stoichiometry N", "setting": "[14]", "result": 19}, {"measurement": "stoichiometry N", "setting": "[15]", "result": 26}]}]}
